Measured values taken from patent US20210122824A1 (ADAGENE, published 2021).

T1: human LAG3 expressed on HEK293F cells (human, UniProt P18627 23-525)
T1 construct: whole, on cells
T1 sequence (looked up): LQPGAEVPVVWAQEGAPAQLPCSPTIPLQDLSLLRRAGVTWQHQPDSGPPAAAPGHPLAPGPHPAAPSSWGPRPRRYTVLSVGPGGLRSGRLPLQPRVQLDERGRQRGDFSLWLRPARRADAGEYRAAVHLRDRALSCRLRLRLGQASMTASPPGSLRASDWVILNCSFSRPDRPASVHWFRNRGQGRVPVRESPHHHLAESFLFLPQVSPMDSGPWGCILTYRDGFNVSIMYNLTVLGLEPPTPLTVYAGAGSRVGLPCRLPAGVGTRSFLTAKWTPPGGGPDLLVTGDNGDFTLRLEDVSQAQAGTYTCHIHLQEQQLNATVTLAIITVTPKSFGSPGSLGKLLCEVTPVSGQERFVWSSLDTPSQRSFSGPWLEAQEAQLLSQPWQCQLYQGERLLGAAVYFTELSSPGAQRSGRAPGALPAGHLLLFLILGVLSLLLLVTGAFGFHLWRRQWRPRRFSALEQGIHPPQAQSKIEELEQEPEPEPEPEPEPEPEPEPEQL

T2: human B7-H3 expressed on HEK293F cells (human, UniProt Q5ZPR3 29-534)
T2 construct: whole, on cells
T2 sequence (looked up): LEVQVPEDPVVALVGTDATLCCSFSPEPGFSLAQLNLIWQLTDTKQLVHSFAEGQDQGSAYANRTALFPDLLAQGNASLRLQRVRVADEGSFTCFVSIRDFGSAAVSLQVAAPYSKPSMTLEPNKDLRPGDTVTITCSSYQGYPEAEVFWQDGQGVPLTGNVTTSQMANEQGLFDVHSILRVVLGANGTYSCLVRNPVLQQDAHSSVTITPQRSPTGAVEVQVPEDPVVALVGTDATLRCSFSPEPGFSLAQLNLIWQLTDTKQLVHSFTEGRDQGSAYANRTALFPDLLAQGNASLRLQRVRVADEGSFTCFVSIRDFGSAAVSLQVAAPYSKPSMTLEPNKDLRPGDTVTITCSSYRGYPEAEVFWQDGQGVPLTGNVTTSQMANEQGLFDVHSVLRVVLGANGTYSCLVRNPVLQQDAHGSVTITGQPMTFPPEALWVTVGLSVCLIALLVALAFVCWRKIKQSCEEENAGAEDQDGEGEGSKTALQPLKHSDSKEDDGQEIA


Assays:
[1] = biological target: mouse PD-L1 (construct not stated) (mouse, UniProt Q9EP73 19-238, limits assumed); assay: SPR (Biacore)
[2] = biological target: T3, human PD1 expressed on HEK293F cells (human, UniProt Q15116 25-288); assay: flow cytometry on transfected HEK293F cells
T3 construct: whole, on cells

[3] = biological target: T4, human CTLA4 expressed on HEK293F cells (human, UniProt P16410 36-223); assay: flow cytometry on transfected HEK293F cells
T4 construct: whole, on cells

[4] = biological target: T1, human LAG3 expressed on HEK293F cells; assay: flow cytometry on transfected HEK293F cells
[5] = biological target: T5, human TIM3 expressed on HEK293F cells (human, UniProt Q8TDQ0 22-301); assay: flow cytometry on transfected HEK293F cells
T5 construct: whole, on cells

[6] = biological target: T2, human B7-H3 expressed on HEK293F cells; assay: flow cytometry on transfected HEK293F cells
[7] = biological target: T6, rhesus PD-L1 expressed on HEK293F cells (rhesus, UniProt F6VEW6 19-290); assay: flow cytometry on transfected HEK293F cells, 100 nM antibody
T6 construct: whole, on cells

[8] = biological target: T7, human PD-L1-His6 (Sino Biological #10084-H08H) (human, UniProt Q9NZQ7 19-239); assay: SPR (Biacore T200), antibody captured by anti-human Fc, PD-L1-His6 in solution
T7 construct: bought; not shown: His6 tag

[9] = biological target: T8, human PD-L1-Fc fusion protein (Sino Biological Cat #10084-H02H) (human, UniProt Q9NZQ7 19-239); assay: competition ELISA, PD1-Fc (1 ug/mL) coated, biotinylated PD-L1-Fc mixed with antibody, HRP neutravidin; blocked ligand PD1-Fc
T8 construct: bought; not shown: Fc part of the bought fusion

[10] = biological target: T9, human PD-L1 expressed on cell surface (human, UniProt Q9NZQ7 19-290); assay: flow cytometry, HEK293F cells transiently expressing the target, 100 nM antibody, PE anti-human Fc; Mean (PE-A against FITC-A, GFP surrogate)
T9 construct: whole, on cells; also called full-length human PD-L1; cell surface PD-L1

[11] = biological target: T10, mouse PD-L1 expressed on HEK293F cells (mouse, UniProt Q9EP73 19-290); assay: as above
T10 construct: whole, on cells

[12] = biological target: T3, human PD1 expressed on HEK293F cells; assay: as above
[13] = biological target: T4, human CTLA4 expressed on HEK293F cells; assay: as above
[14] = biological target: T1, human LAG3 expressed on HEK293F cells; assay: as above
[15] = biological target: T5, human TIM3 expressed on HEK293F cells; assay: as above
[16] = biological target: T9, human PD-L1 expressed on cell surface; assay: blocking by flow cytometry, HEK293F cells expressing full-length human PD-L1, 100 nM antibody then 100 nM biotinylated PD1-His (blocked ligand), Alexa fluor 633 streptavidin; isotype control panel Q2 35.1%
[17] = biological target: T6, rhesus PD-L1 expressed on HEK293F cells; assay: flow cytometry, HEK293F cells transiently expressing the target, 100 nM antibody, PE anti-human Fc; Mean (PE-A against FITC-A, GFP surrogate)
[18] = biological target: T2, human B7-H3 expressed on HEK293F cells; assay: as above

T8 sequence (Q9NZQ7 19-239 limits assumed): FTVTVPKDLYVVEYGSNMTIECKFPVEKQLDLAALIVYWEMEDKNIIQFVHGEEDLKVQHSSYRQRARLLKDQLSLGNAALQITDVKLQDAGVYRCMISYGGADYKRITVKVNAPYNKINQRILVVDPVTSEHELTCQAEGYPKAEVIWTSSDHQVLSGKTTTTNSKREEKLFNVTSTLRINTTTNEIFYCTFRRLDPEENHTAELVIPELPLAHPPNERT
T7 sequence (Q9NZQ7 19-239 limits assumed): as above
T3 sequence (Q15116 25-288): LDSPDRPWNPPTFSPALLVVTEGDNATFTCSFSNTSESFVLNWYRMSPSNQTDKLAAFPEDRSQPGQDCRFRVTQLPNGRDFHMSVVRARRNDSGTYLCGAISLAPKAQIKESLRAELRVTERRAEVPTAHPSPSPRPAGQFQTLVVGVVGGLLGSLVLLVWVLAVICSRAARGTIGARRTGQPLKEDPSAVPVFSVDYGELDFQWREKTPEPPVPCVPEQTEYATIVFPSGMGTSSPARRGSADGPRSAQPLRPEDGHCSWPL
T9 sequence (Q9NZQ7 19-290): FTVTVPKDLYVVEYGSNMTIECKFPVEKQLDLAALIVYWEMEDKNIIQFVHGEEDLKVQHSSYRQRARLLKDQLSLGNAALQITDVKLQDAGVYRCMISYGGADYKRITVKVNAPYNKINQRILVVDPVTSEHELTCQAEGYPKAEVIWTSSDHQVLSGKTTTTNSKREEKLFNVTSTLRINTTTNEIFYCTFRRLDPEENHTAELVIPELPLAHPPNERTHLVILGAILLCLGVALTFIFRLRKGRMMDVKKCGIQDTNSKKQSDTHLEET
T4 sequence (P16410 36-223): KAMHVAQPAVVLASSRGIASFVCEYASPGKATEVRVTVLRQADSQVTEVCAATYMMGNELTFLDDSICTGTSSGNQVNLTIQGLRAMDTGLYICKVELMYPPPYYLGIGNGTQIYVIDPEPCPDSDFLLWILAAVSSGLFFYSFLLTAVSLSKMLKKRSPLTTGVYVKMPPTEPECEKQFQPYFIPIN
T10 sequence (Q9EP73 19-290): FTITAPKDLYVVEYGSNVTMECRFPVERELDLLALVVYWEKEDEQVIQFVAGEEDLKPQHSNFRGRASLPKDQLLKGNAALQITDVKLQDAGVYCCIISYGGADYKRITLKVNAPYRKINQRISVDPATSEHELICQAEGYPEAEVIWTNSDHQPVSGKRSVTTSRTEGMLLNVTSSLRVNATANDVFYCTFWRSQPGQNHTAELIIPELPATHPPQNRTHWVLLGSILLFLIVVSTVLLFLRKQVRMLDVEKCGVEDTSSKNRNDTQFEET
Sequence of mouse PD-L1 (construct not stated) (Q9EP73 19-238 limits assumed): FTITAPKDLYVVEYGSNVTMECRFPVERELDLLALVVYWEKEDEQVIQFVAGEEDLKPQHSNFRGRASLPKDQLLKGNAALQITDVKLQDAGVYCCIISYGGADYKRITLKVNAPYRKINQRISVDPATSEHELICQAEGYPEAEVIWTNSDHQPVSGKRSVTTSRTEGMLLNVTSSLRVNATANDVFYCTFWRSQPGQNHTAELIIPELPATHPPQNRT

Row | Binder | binding result [1] | binding result [2] | binding result [3] | binding result [4] | binding result [5] | binding result [6] | binding result [7] | Kd [8] [nM] | koff [8] [s⁻¹] | kon [8] [M⁻¹ s⁻¹] | IC50 (read off the curve) [9] [nM] | Mean [10] | Mean [11] | Mean [12] | Mean [13] | Mean [14] | Mean [15] | Q2 (percent of cells positive for GFP and for the APC signal of PD1-His, antibody present) [16] [%] | Mean [17] | Mean [18]
1 | TY21418 (antibody, V domains shown, IgG1 (wild type) made from Fab B13002, from HEK293F cells) VH: EVQLVESGGGLVQPGGSLRLSCAASGYTFSNYGIHWVRQAPGKGLEWIGWIYPSGGGTKYAQKFQGRVTISRDNSKNTLYLQLNSLRAEDTAVYYCAREGGGYGYALDYWGQGTLVTVSS VL: DIQLTQSPSSLSASVGDRVTITCRASQGVSSYLAWYQQKPGKAPKLLIYDASNLETGVPSRFSGSGSGTDFTLTISSLQPEDFATYYCQQYDAWPYTFGQGTKVEIKR | no binding | no binding (tested: 100 nM) | no binding (tested: 100 nM) | no binding (tested: 100 nM) | no binding (tested: 100 nM) | no binding (tested: 100 nM) | binds | 0.399 | 0.000179 | 448000 | ~6 | 227000 | 2470 | 2570 | 3460 | 2830 | 2480 | 0.29 |  | 
2 | TY21419 (antibody, V domains shown, IgG1 (wild type) made from Fab B13004, from HEK293F cells) VH: EVQLVESGGGLVQPGGSLRLSCAASGYTFSNYGIHWVRQAPGKGLEWIGWIYPSGGGTKYAQKFQGRVTISRDNSKNTLYLQLNSLRAEDTAVYYCAREGGGYGYALDYWGQGTLVTVSS VL: DIQLTQSPSSLSASVGDRVTITCRASQGISPWLAWYQQKPGKAPKLLIYDASNRATGIPSRFSGSGSGTDFTLTISSLQPEDFATYYCQQYDSWPYTFGQGTKVEIKR | no binding | no binding (tested: 100 nM) | no binding (tested: 100 nM) | no binding (tested: 100 nM) | no binding (tested: 100 nM) | no binding (tested: 100 nM) |  | 0.465 | 0.000143 | 307000 | ~6 | 219000 | 2500 | 3110 | 2330 | 3390 | 2310 | 0.58 | 201000 | 2380
3 | TY21420 (antibody, V domains shown, IgG1 (wild type) made from Fab B15016, from HEK293F cells) VH: EVQLVESGGGLVQPGGSLRLSCAASGYSISSGYYWGWIRQAPGKGLEWIGIIYPSGGGTNYAQKFQGRVTISRDNSKNTLYLQLNSLRAEDTAVYYCARGGGLGFDYWGQGTLVTVSS VL: DIQLTQSPSSLSASVGDRVTITCRASQTIPSFLNWYQQKPGKAPKLLIYAASSLQSGVPSRFSGSGSGTDFTLTISSLQPEDFATYYCQHYTSWPRQFTFGQGTKVEIKR |  | no binding (tested: 100 nM) | no binding (tested: 100 nM) | no binding (tested: 100 nM) | no binding (tested: 100 nM) | no binding (tested: 100 nM) |  |  |  |  | ~6 |  |  | 3710 | 4570 | 4630 | 4660 | 1.53 | 164000 | 3780
